Consider 2 molecules from publication PMC6310021 (Science translational medicine, 2018).

Test [1] concerns the target transgelin-2 (TG2) of rat airway smooth muscle cells (rat (endogenous in rat ASMCs), UniProt Q5XFX0 1-199). Kind of test: radioligand binding.
For test [2], the target named is T1, purified rat recombinant TG2 protein (transgelin-2) (rat, UniProt Q5XFX0 1-199). Kind of test: SPR. For orientation: Surface plasmon resonance follows binding to a sensor surface in real time, without labels.
T1 sequence (Q5XFX0 whole entry): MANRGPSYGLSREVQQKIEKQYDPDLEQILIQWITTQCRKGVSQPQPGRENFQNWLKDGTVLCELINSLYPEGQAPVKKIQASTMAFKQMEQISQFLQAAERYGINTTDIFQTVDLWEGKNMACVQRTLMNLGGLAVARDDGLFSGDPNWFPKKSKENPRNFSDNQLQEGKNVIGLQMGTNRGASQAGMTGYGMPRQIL
Test [3] has as its target T1, purified rat recombinant TG2 protein …. Kind of test: SPR. This is another data set of the same source.

Where two headings read alike, the source gives them in different places.

Sequence of transgelin-2 (TG2) of rat airway smooth muscle cells (Q5XFX0 whole entry): as above

B1: 125I-labeled MT-2 (natural protein)
chain: not shown
modifications: 125I label (site not stated)
In general, Kd refers to the constant that tells how readily two partners part at equilibrium. With B1, in test [1], the affinity, expressed as Kd, was 33.4 nM.

B2: 6×His tag MT-2 recombinant protein (rat metallothionein-2) (natural protein)
chain: not shown
Consider B2, for which the figures for the dissociation constant Kd in test [2] and in test [3] were 442 nM and 110 nM, respectively.
